# Residue numbers refer to the chain shown, from its start. Names and notes keep the numbering of the source.
# B1: MBP-PatMC (Pat1 residues 296-754) (domain or fragment, S. pombe, UniProt O42958 296-754, looked up)
# chain: LDEKRQKLERDHMLMAQCAGLMTRSDKSFIARIQISQLMSEDPESDDFYYRVYSIIRGRKPSEEEASHFIQTYLGPSNNRRRGRRSENPMQKLQQQLQRLVSSAKERPKATQLSLEGALGKIAVNTVRTPRQLLNVKRPTEPASSNSSLNNFSGFSTKKDVLHAIEKVYDLLLDFEQALRKASTLETTDQEQIDTWKTTLSEKLESIWKALYINESLEASSKTRPPFISIISHPKGMRLLPRLFPHLSKEQQISILKVVVYNFDSLDIVLRGTFDVNGELPLDVVSEMSSFTQFIIPPLLTIVNELDLETINNLFSQLLNRTNAVYLIQTKIGLSFLTLFISRAEILKQSGTVNQNEKEEWENTFNVMFNRVKGHFSTVFPPPNARAYADESYPWEFLAACATAASSEQHFTLVSETRDRVLDNIITSKRAPSEIAVVRISNVNLFLNAMGLDARQLSA
# notes: The MBP tag was not removed from constructs that contain the middle domain; also called SpPatMC; H6MBP-PatMC; source: E. coli BL21(DE3)*, purified (Ni-NTA, SEC); not shown: His6, N-terminal, kept; MBP, N-terminal, kept
# B2: MBP-PatMC L457A/E461K (domain or fragment, S. pombe, UniProt O42958 296-754, looked up)
# chain: B1 chain with L162A, E166K
# notes: also called SpPatMC L457A/E461K; Mut; source: E. coli BL21(DE3)*, purified (Ni-NTA, SEC); not shown: His6, N-terminal, kept; MBP, N-terminal, kept
# B3: MBP-Pat1 296-431 (domain or fragment, S. pombe, UniProt O42958 296-431, looked up)
# chain: LDEKRQKLERDHMLMAQCAGLMTRSDKSFIARIQISQLMSEDPESDDFYYRVYSIIRGRKPSEEEASHFIQTYLGPSNNRRRGRRSENPMQKLQQQLQRLVSSAKERPKATQLSLEGALGKIAVNTVRTPRQLLNV
# notes: also called construct containing most of the middle domain of Pat1; source: E. coli BL21(DE3)*, purified (Ni-NTA, SEC); not shown: His6, N-terminal, kept; MBP, N-terminal, kept
# B4: MBP-Pat1 317-754 (domain or fragment, S. pombe, UniProt O42958 317-754, looked up)
# chain: MTRSDKSFIARIQISQLMSEDPESDDFYYRVYSIIRGRKPSEEEASHFIQTYLGPSNNRRRGRRSENPMQKLQQQLQRLVSSAKERPKATQLSLEGALGKIAVNTVRTPRQLLNVKRPTEPASSNSSLNNFSGFSTKKDVLHAIEKVYDLLLDFEQALRKASTLETTDQEQIDTWKTTLSEKLESIWKALYINESLEASSKTRPPFISIISHPKGMRLLPRLFPHLSKEQQISILKVVVYNFDSLDIVLRGTFDVNGELPLDVVSEMSSFTQFIIPPLLTIVNELDLETINNLFSQLLNRTNAVYLIQTKIGLSFLTLFISRAEILKQSGTVNQNEKEEWENTFNVMFNRVKGHFSTVFPPPNARAYADESYPWEFLAACATAASSEQHFTLVSETRDRVLDNIITSKRAPSEIAVVRISNVNLFLNAMGLDARQLSA
# notes: also called PatMC lacking the LAR; source: E. coli BL21(DE3)*, purified (Ni-NTA, SEC); not shown: His6, N-terminal, kept; MBP, N-terminal, kept
# Target: T1, Lsm1-7 complex (S. pombe, UniProt P87173 1-140; O94408 1-96; Q9Y7M4 1-93; O14352 1-121; O42978 1-80; Q9UUI1 1-75; …)
# T1 construct: Lsm1, S. pombe; Lsm2, S. pombe; Lsm3, S. pombe; Lsm4, S. pombe; Lsm5, S. pombe; Lsm6, S. pombe; Lsm7, S. pombe; Heteroheptameric ring formed beforehand; the His6-TEV tag stood on the N-terminus of Lsm1 and was cleaved with TEV protease; also called Lsm1-7 ring; source: E. coli BL21(DE3)*, co-expressed from a polycistronic gene, purified (Ni-NTA, heparin, SEC); not shown: His6, N-terminal, …
# Test: pull-down; 10 µM MBP-tagged Pat1 construct and 10 µM Lsm1-7 mixed 15 min at room temperature, bound to amylose beads, washed four times, eluted with 10 mM maltose; SEC buffer (20 mM HEPES pH 7, 150 mM NaCl, 1 mM DTT); SDS-PAGE, Instant Blue stain
# Conditions: both partners purified
row,binding result,Binder
1,binds,B1
2,binds,B2
3,binds,B3
4,binds,B4

# Reference: paper doi:10.1101/594168, “Pat1 activates late steps in mRNA decay by multiple mechanisms” (bioRxiv, 2019)
